# Experimental data from patent US20200231654A1 (Daiichi Sankyo, published 2020).
# B1: wild type SPINK2 (other)
# chain: GSGMKETAAAKFERQHMDSPDLGTDDDDKAMADIGSANSDPQFGLFSKYRTPNCSQYRLPGCPRHFNPVCGSDMSTYANECTLCMKIREGGHNIKIIRNGPCGASAAA
# notes: also called WT; human SPINK2
# B2: active MMP-9-binding peptide M91005 (designed binder)
# chain: GSGMKETAAAKFERQHMDSPDLGTDDDDKAMADIGSANSDPQFGLFSKYRTPNCRKRGGPSCQMSYNPVCGSDMSTYANECTLCMKIREGGHNIKIIRNGPCGASAAA
# notes: SPINK2 mutant as prepared in (1-2): Stag+linker 1 at the N-terminal, C-terminal 6-mer at the C-terminal
# B3: active MMP-9-binding peptide M91014 (designed binder)
# chain: GSGMKETAAAKFERQHMDSPDLGTDDDDKAMADIGSANSDPQFGLFSKYRTPNCVMYKYAQCSHKYKPVCGSDMSTYANECTLCMKIREGGHNIKIIRNGPCGASAAA
# notes: as for B2
# B4: active MMP-9-binding peptide M91011 (designed binder)
# chain: GSGMKETAAAKFERQHMDSPDLGTDDDDKAMADIGSANSDPQFGLFSKYRTPNCMMYKYAQCSHKSQPVCGSDMSTYANECTLCMKIREGGHNIKIIRNGPCGASAAA
# notes: as for B2
# B5: active MMP-9-binding peptide M91001 (designed binder)
# chain: GSGMKETAAAKFERQHMDSPDLGTDDDDKAMADIGSANSDPQFGLFSKYRTPNCQRGIGPSCQMSYKPVCGSDMSTYANECTLCMKIREGGHNIKIIRNGPCGASAAA
# notes: as for B2
# B6: active MMP-9-binding peptide M91004 (designed binder)
# chain: GSGMKETAAAKFERQHMDSPDLGTDDDDKAMADIGSANSDPQFGLFSKYRTPNCRQRKGPSCQMAFQPVCGSDMSTYANECTLCMKIREGGHNIKIIRNGPCGASAAA
# notes: as for B2
# B7: active MMP-9-binding peptide M91010 (designed binder)
# chain: GSGMKETAAAKFERQHMDSPDLGTDDDDKAMADIGSANSDPQFGLFSKYRTPNCRKVGEPACQMSFNPVCGSDMSTYANECTLCMKIREGGHNIKIIRNGPCGASAAA
# notes: as for B2
# B8: active MMP-9-binding peptide M91002 (designed binder)
# chain: GSGMKETAAAKFERQHMDSPDLGTDDDDKAMADIGSANSDPQFGLFSKYRTPNCRTGRGPACQMGFQPVCGSDMSTYANECTLCMKIREGGHNIKIIRNGPCGASAAA
# notes: as for B2
# B9: active MMP-9-binding peptide M91012 (designed binder)
# chain: GSGMKETAAAKFERQHMDSPDLGTDDDDKAMADIGSANSDPQFGLFSKYRTPNCRVRGGPSCQMSFNPVCGSDMSTYANECTLCMKIREGGHNIKIIRNGPCGASAAA
# notes: as for B2
# Experiments:
# [1] = biological target: T1, biotin-labeled pro-hMMP-9(cat)_His6_FLAG_Avi (human, UniProt P14780 20-449, biotin on the Avi tag (biotin ligase BirA)); assay: ELISA, biotinylated target on streptavidin plate, anti-S-tag HRP detection
# T1 construct: Secretion signal Met1-Ala19 left out; also called pro human MMP-9 enzyme active domain; not shown: His tag (His6 by the construct's name)
# Description: (§1) The biotin-labeled pro-hMMP-9(cat)_His6_FLAG_Avi obtained in (2-1-6) or biotin-labeled active hMMP-9(cat)_FLAG_Avi obtained in (2-1-7) was immobilized on a streptavidin coated 96-well plate (Thermo Fisher Scientific). After blocking with 3% BSA, 1 to 1,000 nM of the binding peptides were added, and reacted at room temperature for 1.5 hours. After washing, goat anti-S-Tag HRP conjugated (Bethyl Laboratories, Inc.) was added, and reacted at room temperature for 1 hour. After washing, substrates of ELISA POD substrate A.B.T.S kit (Nacalai Tesque Inc.) were added, and reacted at room temperature.
# [2] = biological target: T2, biotin-labeled active hMMP-9(cat)_FLAG_Avi (human, UniProt P14780 107-449, biotin on the Avi tag (biotin ligase BirA)); assay: as above
# T2 construct: His tag and propeptide removed; also called active human MMP-9 enzyme active domain
# Description: as §1
# active hMMP-9(cat)_V398A = active hMMP-9(cat)_V398A (human, UniProt P14780 107-449); assay: cell-based or functional assay
# active hMMP-9(cat)_M422I = active hMMP-9(cat)_M422I (human, UniProt P14780 107-449); assay: cell-based or functional assay
# active hMMP-9(cat)_Q199G = active hMMP-9(cat)_Q199G (human, UniProt P14780 107-449); assay: cell-based or functional assay
# active hMMP-9(cat)_Y393A = active hMMP-9(cat)_Y393A (human, UniProt P14780 107-449); assay: cell-based or functional assay
# active hMMP-9(cat)_F110A = active hMMP-9(cat)_F110A (human, UniProt P14780 107-449); assay: cell-based or functional assay
# active hMMP-9(cat)_L187A = active hMMP-9(cat)_L187A (human, UniProt P14780 107-449); assay: cell-based or functional assay
# active hMMP-9(cat)_F192A = active hMMP-9(cat)_F192A (human, UniProt P14780 107-449); assay: cell-based or functional assay
# active hMMP-9(cat)_Y179A = active hMMP-9(cat)_Y179A (human, UniProt P14780 107-449); assay: cell-based or functional assay
# active hMMP-9(cat) = active hMMP-9(cat) (human, UniProt P14780 107-449); assay: cell-based or functional assay
# active hMMP-9(cat)_L397A = active hMMP-9(cat)_L397A (human, UniProt P14780 107-449); assay: cell-based or functional assay
# active hMMP-9(cat)_Y423A = active hMMP-9(cat)_Y423A (human, UniProt P14780 107-449); assay: cell-based or functional assay
# active hMMP-9(cat)_Y420A = active hMMP-9(cat)_Y420A (human, UniProt P14780 107-449); assay: cell-based or functional assay
# hMMP-9(cat)_E402Q_His6 = biological target: T3, hMMP-9(cat)_E402Q_His6 (human, UniProt P14780 107-449); assay: size exclusion chromatography of the mixture
# T3 construct: also called human MMP-9 enzyme active domain E402Q mutant; human MMP-9 E402Q mutant; not shown: His tag (His6 by the construct's name)
# Description: After the reaction, 10 μl of the reaction solution was analyzed by size exclusion chromatography. The chromatographic conditions were as follows.
# active hMMP-9(cat)_P193A = active hMMP-9(cat)_P193A (human, UniProt P14780 107-449); assay: cell-based or functional assay
# active hMMP-9(cat)_R424T = active hMMP-9(cat)_R424T (human, UniProt P14780 107-449); assay: cell-based or functional assay
# active hMMP-9(cat)_D185A = active hMMP-9(cat)_D185A (human, UniProt P14780 107-449); assay: cell-based or functional assay
# active hMMP-9(cat)_D185A, sequence (P14780 107-449 D185A): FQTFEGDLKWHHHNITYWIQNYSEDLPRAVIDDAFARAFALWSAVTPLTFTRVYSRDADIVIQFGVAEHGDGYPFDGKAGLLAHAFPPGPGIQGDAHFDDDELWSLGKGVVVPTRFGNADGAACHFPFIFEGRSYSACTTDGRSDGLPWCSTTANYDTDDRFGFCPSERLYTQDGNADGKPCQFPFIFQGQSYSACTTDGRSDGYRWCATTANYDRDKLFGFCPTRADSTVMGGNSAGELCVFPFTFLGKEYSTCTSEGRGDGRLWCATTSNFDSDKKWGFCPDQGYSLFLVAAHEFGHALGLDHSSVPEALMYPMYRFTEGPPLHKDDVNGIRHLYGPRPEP
# T1 sequence (P14780 other isoform, or with tags, fused parts or gaps): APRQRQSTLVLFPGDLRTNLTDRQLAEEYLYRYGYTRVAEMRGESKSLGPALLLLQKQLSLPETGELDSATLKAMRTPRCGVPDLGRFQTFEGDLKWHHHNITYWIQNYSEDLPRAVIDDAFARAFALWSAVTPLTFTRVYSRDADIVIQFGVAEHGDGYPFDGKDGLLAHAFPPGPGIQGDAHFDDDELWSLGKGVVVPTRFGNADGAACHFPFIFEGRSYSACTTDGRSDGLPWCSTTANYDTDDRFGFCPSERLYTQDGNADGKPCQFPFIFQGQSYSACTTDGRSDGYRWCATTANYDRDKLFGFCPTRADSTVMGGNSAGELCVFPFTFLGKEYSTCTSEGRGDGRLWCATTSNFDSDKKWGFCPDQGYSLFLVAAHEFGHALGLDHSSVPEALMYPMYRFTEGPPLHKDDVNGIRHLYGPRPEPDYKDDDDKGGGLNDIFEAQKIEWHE
# T2 sequence (P14780 other isoform, or with tags, fused parts or gaps): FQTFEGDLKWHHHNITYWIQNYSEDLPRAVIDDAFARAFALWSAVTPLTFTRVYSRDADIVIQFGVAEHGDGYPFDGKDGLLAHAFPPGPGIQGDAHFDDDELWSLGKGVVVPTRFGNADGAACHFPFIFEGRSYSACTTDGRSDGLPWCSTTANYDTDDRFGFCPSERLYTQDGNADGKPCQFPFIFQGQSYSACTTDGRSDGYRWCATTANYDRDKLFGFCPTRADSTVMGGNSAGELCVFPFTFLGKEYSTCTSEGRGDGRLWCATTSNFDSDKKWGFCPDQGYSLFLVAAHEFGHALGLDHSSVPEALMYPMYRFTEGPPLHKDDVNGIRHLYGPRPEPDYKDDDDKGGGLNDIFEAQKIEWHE
# T3 sequence (P14780 107-449 E402Q): as the sequence (P14780 107-449 D185A) above, with A79D, E296Q counted along it
# active hMMP-9(cat)_Y423A, sequence (P14780 107-449 Y423A): as the sequence (P14780 107-449 D185A) above, with A79D, Y317A counted along it
# active hMMP-9(cat)_V398A, sequence (P14780 107-449 V398A): as the sequence (P14780 107-449 D185A) above, with A79D, V292A counted along it
# active hMMP-9(cat), sequence (P14780 107-449): as the sequence (P14780 107-449 D185A) above, with A79D counted along it
# active hMMP-9(cat)_Y393A, sequence (P14780 107-449 Y393A): as the sequence (P14780 107-449 D185A) above, with A79D, Y287A counted along it
# active hMMP-9(cat)_F192A, sequence (P14780 107-449 F192A): as the sequence (P14780 107-449 D185A) above, with A79D, F86A counted along it
# active hMMP-9(cat)_L397A, sequence (P14780 107-449 L397A): as the sequence (P14780 107-449 D185A) above, with A79D, L291A counted along it
# active hMMP-9(cat)_M422I, sequence (P14780 107-449 M422I): as the sequence (P14780 107-449 D185A) above, with A79D, M316I counted along it
# active hMMP-9(cat)_Y179A, sequence (P14780 107-449 Y179A): as the sequence (P14780 107-449 D185A) above, with Y73A, A79D counted along it
# active hMMP-9(cat)_Y420A, sequence (P14780 107-449 Y420A): as the sequence (P14780 107-449 D185A) above, with A79D, Y314A counted along it
# active hMMP-9(cat)_P193A, sequence (P14780 107-449 P193A): as the sequence (P14780 107-449 D185A) above, with A79D, P87A counted along it
# active hMMP-9(cat)_F110A, sequence (P14780 107-449 F110A): as the sequence (P14780 107-449 D185A) above, with F4A, A79D counted along it
# active hMMP-9(cat)_L187A, sequence (P14780 107-449 L187A): as the sequence (P14780 107-449 D185A) above, with A79D, L81A counted along it
# active hMMP-9(cat)_Q199G, sequence (P14780 107-449 Q199G): as the sequence (P14780 107-449 D185A) above, with A79D, Q93G counted along it
# active hMMP-9(cat)_R424T, sequence (P14780 107-449 R424T): as the sequence (P14780 107-449 D185A) above, with A79D, R318T counted along it
binder,measurement,setting,value
B1,binding result,[1],"no binding (tested: 1 to 1,000 nM)"
same,binding result,[2],"no binding (tested: 1 to 1,000 nM)"
B2,IC50 of enzyme inhibition relative to the wild type,active hMMP-9(cat)_V398A,2.2 times
same,IC50 of enzyme inhibition relative to the wild type,active hMMP-9(cat)_M422I,2.6 times
same,IC50 of enzyme inhibition relative to the wild type,active hMMP-9(cat)_Q199G,2.3 times
same,IC50 of enzyme inhibition relative to the wild type,active hMMP-9(cat)_Y393A,2.7 times
same,IC50 of enzyme inhibition relative to the wild type,active hMMP-9(cat)_F110A,4 times
same,IC50 of enzyme inhibition relative to the wild type,active hMMP-9(cat)_L187A,6.7 times
same,IC50 of enzyme inhibition relative to the wild type,active hMMP-9(cat)_F192A,> 57.8 times
same,IC50 of enzyme inhibition relative to the wild type,active hMMP-9(cat)_Y179A,3.2 times
same,IC50 of inhibition of substrate peptide degradation,active hMMP-9(cat),17 nM
same,IC50 of enzyme inhibition relative to the wild type,active hMMP-9(cat)_L397A,2.2 times
same,IC50 of enzyme inhibition relative to the wild type,active hMMP-9(cat)_Y423A,13.2 times
same,IC50 of enzyme inhibition relative to the wild type,active hMMP-9(cat)_Y420A,3.1 times
same,binding result,hMMP-9(cat)_E402Q_His6,no binding (tested: 75 µM peptide with 25 µM target)
same,binding result,[1],no binding (tested: 1 µM)
B3,binding result,[1],no binding (tested: 1 µM)
same,binding result,[2],binds
B4,IC50 of enzyme inhibition relative to the wild type,active hMMP-9(cat)_V398A,4.8 times
same,IC50 of enzyme inhibition relative to the wild type,active hMMP-9(cat)_M422I,2.6 times
same,IC50 of enzyme inhibition relative to the wild type,active hMMP-9(cat)_P193A,6.5 times
same,IC50 of enzyme inhibition relative to the wild type,active hMMP-9(cat)_Y393A,> 57.6 times
same,IC50 of enzyme inhibition relative to the wild type,active hMMP-9(cat)_R424T,2.7 times
same,IC50 of enzyme inhibition relative to the wild type,active hMMP-9(cat)_F192A,5 times
same,IC50 of enzyme inhibition relative to the wild type,active hMMP-9(cat)_Y179A,4.9 times
same,IC50 of enzyme inhibition relative to the wild type,active hMMP-9(cat)_D185A,19 times
same,IC50 of inhibition of substrate peptide degradation,active hMMP-9(cat),17 nM
same,IC50 of enzyme inhibition relative to the wild type,active hMMP-9(cat)_L397A,3.5 times
same,IC50 of enzyme inhibition relative to the wild type,active hMMP-9(cat)_Y423A,> 20 times
same,binding result,hMMP-9(cat)_E402Q_His6,no binding (tested: 75 µM peptide with 25 µM target)
same,binding result,[1],no binding (tested: 1 µM)
B5,binding result,[1],no binding (tested: 1 µM)
same,binding result,[2],binds
B6,binding result,[1],no binding (tested: 1 µM)
same,binding result,[2],binds
B7,binding result,[1],no binding (tested: 1 µM)
same,binding result,[2],binds
B8,binding result,[1],no binding (tested: 1 µM)
same,binding result,[2],binds
B9,binding result,[1],no binding (tested: 1 µM)
same,binding result,[2],binds
